Publication PMC11966256

Key:
[1] = target: HsLARP6(84-183) La domain (Homo sapiens, UniProt Q9BRS8); assay: analytical SEC
[2] = target: HsLARP6(73-183) La domain (Homo sapiens, UniProt Q9BRS8); assay: analytical SEC
[3] = target: Cy5-HsLARP6(73-183)G74C La domain (Homo sapiens, UniProt Q9BRS8, G74C); assay: MST

With GGCACAAGGAGUCUGCAUGUCUAAGUGCUAGACAUGCUCAGCUUUGUG (structured_RNA) [5'SL RNA (a2(I)), 48 nt] the binding result [1] was “binds”, the binding result [2] was “binds” and the Kd [3] was 4.87 ± 0.15 nM.
